Experimental data taken from the supplement of paper PMC6757056.
± gives the standard deviation of the averaged measurements.

B1: library; a variant is named by its letters at N, in order (parent)
chain: GCUGUCACCGGUGUAUUACCCUAGUGGUCGACCGGUCUGAUGAGUCUNNNNNNAGACGAAACAGC

Columns and labels:
hypoxanthine [1] = variants of: B1; experiment: FACS-Seq fitted mean relative fluorescence mCherry/BFP without ligand (log10 relative fluorescence); ligand: hypoxanthine (xanthine aptamer); higher = higher reporter protein expression; details: HEK293T, ligand present: no
How it was run: (§1)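 The ribozyme switch sat in an mCherry reporter, delivered by lentivirus into HEK293T libraries along with an EF1α-BFP marker. Enriched cells were incubated 48 h with or without ligand, sorted into 6 bins by mCherry/BFP, and bin genomic DNA was PCR-amplified, barcoded and MiSeq-sequenced. Fluorescence equals the fitted normal mean of the bin counts after normalization. Those log10(mCherry/BFP) means were scaled to five spiked-in control ribozymes.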

hypoxanthine [2] = variants of: B1; experiment: normalized RNA/DNA level with ligand (relative to sTRSVctl = 100) (log10 (% of sTRSVctl)); ligand: hypoxanthine (xanthine aptamer); higher = less ribozyme self-cleavage, higher mRNA level; details: ligand concentration (+) RNA-Seq: 5 mM, HEK293T, reporter: mCherry (pCS4076), ligand present: yes
Experimental: (§2)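 Hammerhead (sTRSV) ribozyme switch libraries with a ligand aptamer grafted on stem I and a randomized N4-6 loop II, cloned into the 3' UTR of mCherry and transiently transfected into HEK293T cells; RNA-Seq 72 h post transfection with ligand added 1 h before transfection; RNA read count / plasmid DNA read count normalized to the non-cleaving sTRSVctl (x100), log10; sequences with >100 DNA reads. FACS-Seq: lentiviral library sorted into 6 bins after 48 h ligand, log-normal fit mean of mCherry/BFP scaled to controls. Printed sequences are partial switch sequences.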

hypoxanthine [3] = variants of: B1; experiment: normalized RNA/DNA level without ligand (relative to sTRSVctl = 100) (log10 (% of sTRSVctl)); ligand: hypoxanthine (xanthine aptamer); higher = less ribozyme self-cleavage, higher mRNA level; details: HEK293T, reporter: mCherry (pCS4076), ligand present: no
Experimental: as §2

hypoxanthine [4] = variants of: B1; experiment: FACS-Seq fitted mean relative fluorescence mCherry/BFP with ligand (log10 relative fluorescence); ligand: hypoxanthine (xanthine aptamer); ligand concentration (+) FACS-Seq: 5 mM; higher = higher reporter protein expression; details: HEK293T, ligand present: yes
How it was run: as §1

Variant	FACS-Seq fitted mean (log10) (hypoxanthine [1])	normalized RNA/DNA level with ligand (log10) (hypoxanthine [2])	normalized RNA/DNA level without ligand (log10) (hypoxanthine [3])	FACS-Seq fitted mean (log10) (hypoxanthine [4])
UCAUCA	0.87 ± 0.1	1.99 ± 0.031	1.98 ± 0.044	0.763 ± 0.052
ACAAAU	0.311 ± 0.091	1.89 ± 0.029	1.65 ± 0.044	0.331 ± 0.014
ACAAAG	0.343 ± 0.016	1.901 ± 0.0069	1.54 ± 0.028	0.696 ± 0.034
ACAAAC	0.5372 ± 0.0045	1.93 ± 0.062	1.826 ± 0.017	0.517 ± 0.046
ACAAAA	0.4 ± 0.17	1.904 ± 0.0062	1.81 ± 0.021	0.1925 ± 0.0013
UCCAAG	0.264 ± 0.033	1.897 ± 0.015	1.54 ± 0.036	0.457 ± 0.044
UCCAAA	0.00132 ± 0.058	1.937 ± 0.0063	1.804 ± 0.0049	0.0172 ± 0.041
CAUUAU	0.7325 ± 0.0015	1.9 ± 0.08	1.8 ± 0.021	0.778 ± 0.098
GAUUGG	-0.303 ± 0.024	1.794 ± 0.017	1.29 ± 0.047	0.393 ± 0.017
GAUUGA	0.348 ± 0.023	1.92 ± 0.022	1.61 ± 0.05	0.455 ± 0.063
GAUUGC	0.4839 ± 0.0013	1.87 ± 0.054	1.65 ± 0.043	0.553 ± 0.01
GAUUGU	0.452 ± 0.076	1.944 ± 0.01	1.77 ± 0.042	0.601 ± 0.054
GCAAGA	0.209 ± 0.025	1.94 ± 0.045	1.708 ± 0.0095	0.332 ± 0.0071
CCCACA	0.706 ± 0.022	1.99 ± 0.086	1.862 ± 0.0068	0.739 ± 0.032
UCAAUC	0.3976 ± 0.0018	2.0151 ± 0.001	2 ± 0.024	0.543 ± 0.12
ACACGU	0.624 ± 0.02	1.95 ± 0.079	1.823 ± 0.0069	0.572 ± 0.096
ACACGA	-0.273 ± 0.0021	1.91 ± 0.062	1.73 ± 0.058	0.145 ± 0.0024
ACACGG	-0.144 ± 0.07	1.79 ± 0.053	1.32 ± 0.041	0.465 ± 0.024
ACAGCG	0.12 ± 0.062	1.92 ± 0.028	1.67 ± 0.0018	0.456 ± 0.065
UCAACA	0.101 ± 0.027	1.959 ± 0.018	1.84 ± 0.024	0.297 ± 0.054
UCAACG	0.504 ± 0.15	1.918 ± 0.0024	1.783 ± 0.015	0.585 ± 0.091
CCCAAA	0.477 ± 0.017	1.922 ± 0.019	1.84 ± 0.036	0.617 ± 0.11
CCCAAG	0.293 ± 0.059	1.91 ± 0.033	1.6 ± 0.079	0.439 ± 0.018
UAUUGU	0.106 ± 0.0092	1.92 ± 0.044	1.7 ± 0.026	0.411 ± 0.049

Variant	FACS-Seq fitted mean (log10) (hypoxanthine [1])	normalized RNA/DNA level with ligand (log10) (hypoxanthine [2])	normalized RNA/DNA level without ligand (log10) (hypoxanthine [3])	FACS-Seq fitted mean (log10) (hypoxanthine [4])
UAUUGG	0.528 ± 0.017	1.87 ± 0.031	1.431 ± 0.011	0.745 ± 0.06
UAUUAC	0.513 ± 0.025	1.9 ± 0.054	1.823 ± 0.018	0.512 ± 0.011
UAUUAU	0.643 ± 0.015	1.93 ± 0.023	1.8 ± 0.028	0.594 ± 0.024
AAUUUG	0.3 ± 0.021	1.873 ± 0.012	1.57 ± 0.046	0.468 ± 0.064
GAUUUA	0.541 ± 0.043	1.89 ± 0.036	1.87 ± 0.051	0.437 ± 0.1
GAUUUG	0.162 ± 0.045	1.87 ± 0.046	1.4542 ± 0.00087	0.521 ± 0.0058
UCCAUG	-0.135 ± 0.032	1.88 ± 0.074	1.49 ± 0.025	-0.271 ± 0.076
CCAUAC	0.1516 ± 0.0013	1.9 ± 0.031	1.836 ± 0.011	0.283 ± 0.013
CCAUAU	0.286 ± 0.014	1.96 ± 0.029	1.82 ± 0.057	0.542 ± 0.01
UAUUCA	0.158 ± 0.15	1.942 ± 0.0084	1.925 ± 0.0052	0.144 ± 0.082
UCAGUU	-0.0872 ± 0.018	1.96 ± 0.046	1.87 ± 0.04	0.0688 ± 0.016
UCAGUA	0.09 ± 0.0096	1.92 ± 0.069	1.797 ± 0.013	0.386 ± 0.036
GCAACA	-0.108 ± 0.043	1.96 ± 0.027	1.85 ± 0.059	-0.0215 ± 0.13
GCAUGC	-0.393 ± 0.035	1.926 ± 0.01	1.74 ± 0.14	-0.314 ± 0.05
GCAUGG	0.196 ± 0.083	1.83 ± 0.052	1.33 ± 0.063	0.701 ± 0.049
CCACCC	0.2004 ± 0.0019	1.93 ± 0.044	1.93 ± 0.045	0.312 ± 0.0055
AAUUGA	-0.0788 ± 0.062	1.9 ± 0.041	1.73 ± 0.018	-0.112 ± 0.16
AAUUGG	0.22 ± 0.02	1.872 ± 0.014	1.405 ± 0.0046	0.658 ± 0.036
UCAAGA	0.386 ± 0.04	1.92 ± 0.028	1.54 ± 0.051	0.599 ± 0.074
UCAAGU	0.221 ± 0.018	1.91 ± 0.0075	1.63 ± 0.043	0.415 ± 0.046
GCCAAA	0.458 ± 0.073	1.95 ± 0.042	1.813 ± 0.017	0.612 ± 0.1
GCCAAG	0.432 ± 0.0083	1.829 ± 0.011	1.4 ± 0.051	0.713 ± 0.047
ACCAGU	-0.346 ± 0.35	1.907 ± 0.0063	1.8 ± 0.064	-0.721 ± 0.15
CCAUGA	0.311 ± 0.11	1.986 ± 0.016	1.788 ± 0.016	0.414 ± 0.064

Variant	FACS-Seq fitted mean (log10) (hypoxanthine [1])	normalized RNA/DNA level with ligand (log10) (hypoxanthine [2])	normalized RNA/DNA level without ligand (log10) (hypoxanthine [3])	FACS-Seq fitted mean (log10) (hypoxanthine [4])
CCAUGG	0.39 ± 0.0048	1.85 ± 0.07	1.47 ± 0.018	0.611 ± 0.053
UCAUGA	0.457 ± 0.055	1.885 ± 0.014	1.5 ± 0.032	0.53 ± 0.061
UCCCAC	0.0771 ± 0.00054	1.894 ± 0.014	1.56 ± 0.017	0.177 ± 0.043
GCACGG	-0.136 ± 0.023	1.86 ± 0.026	1.444 ± 0.009	0.376 ± 0.087
ACACUG	0.4461 ± 0.0036	1.9 ± 0.021	1.42 ± 0.097	0.795 ± 0.052
UCACCA	0.743 ± 0.044	1.93 ± 0.025	1.919 ± 0.0074	0.834 ± 0.076
UCACCG	0.705 ± 0.011	1.94 ± 0.027	1.7 ± 0.025	0.592 ± 0.045
UCACCU	0.67 ± 0.034	1.94 ± 0.037	1.94 ± 0.061	0.419 ± 0.013
ACAGAU	0.263 ± 0.00091	1.89 ± 0.033	1.64 ± 0.049	0.461 ± 0.069
ACAGAG	0.0524 ± 0.0076	1.79 ± 0.044	1.34 ± 0.041	0.353 ± 0.058
UCAUAA	0.7537 ± 0.0032	1.93 ± 0.029	1.75 ± 0.025	0.622 ± 0.0065
UCAUAC	0.306 ± 0.022	1.98 ± 0.041	1.89 ± 0.056	0.474 ± 0.0069
UCAUAG	0.588 ± 0.1	1.89 ± 0.033	1.69 ± 0.022	0.567 ± 0.11
CCACUG	0.339 ± 0.054	1.917 ± 0.012	1.8 ± 0.1	0.526 ± 0.076
GAUUCG	-0.06 ± 0.056	1.906 ± 0.0054	1.54 ± 0.021	0.357 ± 0.021
CAUUGA	0.221 ± 0.12	1.912 ± 0.0057	1.82 ± 0.053	0.32 ± 0.0063
UCCAGU	0.305 ± 0.066	1.96 ± 0.066	1.771 ± 0.013	0.502 ± 0.0098
ACCAUU	0.187 ± 0.05	1.971 ± 0.015	1.839 ± 0.007	0.395 ± 0.049
ACCAUA	-0.27 ± 0.052	1.85 ± 0.049	1.849 ± 0.01	-0.201 ± 0.13
UCAGGA	0.301 ± 0.039	1.89 ± 0.02	1.44 ± 0.047	0.6634 ± 0.0026
UCAGGG	0.486 ± 0.02	1.951 ± 0.015	1.69 ± 0.065	0.704 ± 0.067
GCAGUC	0.791 ± 0.051	1.94 ± 0.047	1.71 ± 0.047	0.764 ± 0.064
GCAGUG	0.155 ± 0.01	1.87 ± 0.075	1.4 ± 0.064	0.533 ± 0.039
GCAUCG	0.0876 ± 0.11	1.964 ± 0.018	1.506 ± 0.0042	0.53188 ± 0.00023
